B1: Isocitrate dehydrogenase kinase/phosphatase (Escherichia coli (strain K12)), P11071 (parent)
chain: MPRGLELLIAQTILQGFDAQYGRFLEVTSGAQQRFEQADWHAVQQAMKNRIHLYDHHVGLVVEQLRCITNGQSTDAAFLLRVKEHYTRLLPDYPRFEIAESFFNSVYCRLFDHRSLTPERLFIFSSQPERRFRTIPRPLAKDFHPDHGWESLLMRVISDLPLRLRWQNKSRDIHYIIRHLTETLGTDNLAESHLQVANELFYRNKAAWLVGKLITPSGTLPFLLPIHQTDDGELFIDTCLTTTAEASIVFGFARSYFMVYAPLPAALVEWLREILPGKTTAELYMAIGCQKHAKTESYREYLVYLQGCNEQFIEAPGIRGMVMLVFTLPGFDRVFKVIKDRFAPQKEMSAAHVRACYQLVKEHDRVGRMADTQEFENFVLEKRHISPALMELLLQEAAEKITDLGEQIVIRHLYIERRMVPLNIWLEQVEGQQLRDAIEEYGNAIRQLAAANIFPGDMLFKNFGVTRHGRVVFYDYDEICYMTEVNFRDIPPPRYPEDELASEPWYSVSPGDVFPEEFRHWLCADPRIGPLFEEMHADLFRADYWRALQNRIREGHVEDVYAYRRRQRFSVRYGEMLF
partner: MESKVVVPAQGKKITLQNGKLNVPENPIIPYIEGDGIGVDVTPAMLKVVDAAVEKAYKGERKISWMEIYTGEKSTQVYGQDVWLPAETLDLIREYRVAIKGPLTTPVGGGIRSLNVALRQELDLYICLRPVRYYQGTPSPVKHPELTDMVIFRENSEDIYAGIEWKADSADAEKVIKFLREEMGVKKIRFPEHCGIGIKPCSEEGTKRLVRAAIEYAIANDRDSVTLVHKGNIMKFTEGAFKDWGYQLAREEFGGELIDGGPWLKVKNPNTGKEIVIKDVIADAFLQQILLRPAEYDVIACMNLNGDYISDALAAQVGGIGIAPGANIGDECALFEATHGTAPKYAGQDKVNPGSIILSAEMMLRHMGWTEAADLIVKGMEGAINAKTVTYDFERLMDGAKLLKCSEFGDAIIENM

Variants of: B1
Conditions: with idh_ecoli icd

effect of a mutation on the interaction	Variant
disrupting interaction	D475A
disrupting interaction	K336A
disrupting interaction	N462A
disrupting interaction	E497K;E499K

Variants of: B1
Conditions: with idh_ecoli icd
Remark: another data set of the same source

effect of a mutation on the interaction	Variant
disrupting interaction	D477A
disrupting interaction	K346E
